Reference: the supplement of paper PMC12455559
± gives the standard deviation of the averaged measurements.

Columns and labels:
[1] = melting temperature (DSF); higher = more thermostable
Outline: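 On a Bio-Rad CFX96, fluorescence of 45 μL enzyme (0 to 0.3 mg/mL) mixed with 5 μL 5X Sypro Orange in sealed PCR plates was followed from 25 °C through 250 cycles of 0.3 °C, with a 0.3 °C/s ramp. The enzymes had been expressed in E. coli C41(DE3), taken up on nickel beads and released by SUMO protease. Melting temperature, measured by differential scanning fluorimetry, is the value given.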

[2] = purified protein yield per well (BCA); higher = higher soluble expression
Outline: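 Purified protein yield per well is reported, as measured by the Pierce Rapid Gold BCA kit. The enzymes came from E. coli C41(DE3) autoinduction cultures of 2 mL with 100 µg/mL kanamycin, held at 37 °C for 2 h and 18 °C for 40 h, then lysed and purified on Ni-charged magnetic beads with SUMO protease release. The detection threshold is 25 ug (0.1 mg/mL), and lower values are under it.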

[3] = PET hydrolysis, aromatic products released after 48 h (umol product/mg enzyme); higher = more PET depolymerization activity
Outline: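 Tagless, SUMO-cleaved candidate enzymes were purified on nickel beads, and 5 μg (50 μL) was added to 3.5 mg amorphous PET film or crystalline PET powder in 450 μL buffer. Buffers were 50 mM NaCitrate (pH 4.5, 5.5), 50 mM NaPhosphate (pH 6.5, 7.5) or glycine (pH 8.5). Sealed plates were incubated 48 h at 40 or 60 °C without shaking. PET hydrolysis activity is the aromatic product in the supernatant, read by absorbance at 260 and 280 nm against buffer blanks and expressed per mg enzyme.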

[4] = substrate: aFilm, 40 °C, pH 4.5
[5] = substrate: aFilm, 40 °C, pH 5.5
[6] = substrate: aFilm, 40 °C, pH 6.5
[7] = substrate: aFilm, 40 °C, pH 7.5
[8] = substrate: aFilm, 60 °C, pH 4.5
[9] = substrate: aFilm, 60 °C, pH 5.5
[10] = substrate: aFilm, 60 °C, pH 6.5
[11] = substrate: aFilm, 60 °C, pH 7.5
[12] = substrate: cryPow, 40 °C, pH 4.5
[13] = substrate: cryPow, 40 °C, pH 5.5
[14] = substrate: cryPow, 40 °C, pH 6.5
[15] = substrate: cryPow, 40 °C, pH 7.5
[16] = substrate: cryPow, 60 °C, pH 4.5
[17] = substrate: cryPow, 60 °C, pH 5.5
[18] = substrate: cryPow, 60 °C, pH 6.5
[19] = substrate: cryPow, 60 °C, pH 7.5

Sequence | melting temperature [1] [C] | purified protein yield per well [2] [µg] | PET hydrolysis [3, 4] | PET hydrolysis [3, 5] | PET hydrolysis [3, 6] | PET hydrolysis [3, 7] | PET hydrolysis [3, 8] | PET hydrolysis [3, 9] | PET hydrolysis [3, 10] | PET hydrolysis [3, 11] | PET hydrolysis [3, 12] | PET hydrolysis [3, 13] | PET hydrolysis [3, 14] | PET hydrolysis [3, 15] | PET hydrolysis [3, 16] | PET hydrolysis [3, 17] | PET hydrolysis [3, 18] | PET hydrolysis [3, 19] | PET hydrolysis ([3]; substrate: aFilm, 40 °C, pH 8.5) | PET hydrolysis ([3]; substrate: aFilm, 60 °C, pH 8.5) | PET hydrolysis ([3]; substrate: cryPow, 40 °C, pH 8.5) | PET hydrolysis ([3]; substrate: cryPow, 60 °C, pH 8.5)
ADNPYQRGPNPTLASVAANRGTFATAQTSVPAGNGFGGGVIYYPTDTSQTFGGVAIVPGYSALFANEEAWMGPWLASFGFVVIGIETNSRTDSADARGTQLLAALDYLTQRSSVRDRVDPNRLSVVGHSAGGAGVLSAILRRPTLKAGIGLAPGSPVGDYGLSNDRVPTMFISGQRDTTVTQSYLNGLYTTIPASTPSAWVEITGVDHLFATRANTTEMRVLIPWLKIWVDNDTRYTQFLCPLADSSNISMYRNKCPYVPPGGSPSPSASPSSSPSQSPSQSPSQSPSQSPSQSPSTSPSPPPPGACVAEYQPQNSWPGGYQALVTVKAGSSAINGWTVRWTLGSGQTISQAWNGTLSTSGSAVTVKNASYNGSLPAGGSTSFGFLATGTPSTPTLTCTSP [ESM013] | 59.8 | 431 | < 3 | < 3 | < 3 | < 3 | < 3 | < 3 | < 3 | < 3 | < 3 | < 3 | < 3 | < 3 | < 3 | < 3 | < 3 | < 3 | – | – | – | –
ADNPYQRGPNPTLASVAATRGTFATAQINVPGGNGFGSGVIYYPTDTSQGTFGGVAIVPGYSALFANEEAWMGPWLASFGFVVIGIETNSRTDSADARGTQLLAALDYLTQRSSVRDRVDPSRLSVVGHSAGGAGVLSAVIRRPSLKAAVGLAPGSPVGNYELSADKVPLMFISGQKDTTVTQSYLNGLYTTIPASTPSAWVEITGVDHLFATRANTTEMRVLIPWLKIFLDNDTRYTQFLCPLADSSGISMYRNKCPYVPPGGSSPSPSATPSPSVSPSASPSASPSASPSVSPSASPSVSPSASPSASPSSQPSGACTASYKTVNSWPGGYQGEVTVTAGSAAINGWTVRWTLGSGQSVSQVWNGTLTTSGSTVTVKNVSYNGSLPAAGSATFGFLANGTASTPAVTCTSP [ESM004] | 55.9 | 375 | < 3 | < 3 | < 3 | < 3 | < 3 | < 3 | < 3 | < 3 | < 3 | < 3 | < 3 | < 3 | < 3 | < 3 | < 3 | < 3 | – | – | – | –
ADNPYQRGPNPTQASIAANRGTFATAETSVGGGNGFGGAKIYYPTDTSQGTFGAIAVSPGYTATWAAEGAWMGHWLASFGFVVIGIDTINRNDREYARGTQLLAALDYLTQRSSVRTRVDPNRLAVMGHSMGGGGTISAALRRPTLKAAIGLAPYYPSQSTSGMQVPTMLLAGQNDGTSTPASIVTFYNDIPASTEKVYLELTGAGHGFPTSNNSVVTRKVIPWMKIFIDQDTRYTQFLCPLQDLTGIRTYRNSCPLLPNDPGTTFSLAGSASGKCADVPGRVQTNGTGLIIWTCNNAGNQQWTQTPAGELRIYGNTKCMDANASGQGARVTINTCNGGNSQKWTVNTNGTVTNAASGRCLDAGGTADNSPVVVNTCNAASGQTWTKRP [DP047] | 49.9 | 311 | – | < 3 | < 3 | < 3 | – | < 3 | < 3 | < 3 | – | < 3 | < 3 | < 3 | – | < 3 | < 3 | < 3 | < 3 | < 3 | < 3 | < 3
ADNPYQRGPNPTRESVAANRGTFATAETSVGGGNGFGGAKIYYPADTSQGKFAALAVVPGYTATWAAEGAWMGHWLASFGFVIIGIDTNSRNDWDTARGDQLLAALDYLTQRSSVRDRVDANRLGVMGHSMGGGGAISAALKRPTLKAAIGNAPFSASQNLTTMRVPIALNAGQRDGTVTPSMVTGYYNQVPATTEKMYLEFSGAGHAFPTSNNSALTRKIIPWMKIFLDQDTRYQQFLCPVMDNTGISASRSSCPLIPGDPTPPTDTYSLAGAASGKCADVEGRSQTNGAKLLLWPCNGQVNQRWTQTAAGELRVYDNPKCMDAGGSGQGERVTSNACNGGNSQKWTVNANGTVTNTTSGRCLDATGTADDAPVVVNTCNGAASQNWSKRS [TEP131] | 55.3 | 331 | < 3 | < 3 | < 3 | < 3 | < 3 | < 3 | < 3 | < 3 | < 3 | < 3 | 4 | 6.5 ± 0.71 | < 3 | < 3 | < 3 | < 3 | – | – | – | –
